{"source": "patent US20110071089A1", "binders": {"B1": {"name": "SorC13 (peptide)", "peptide": "KEFLHPSKVDLPR", "modifications": "not checked"}, "B2": {"name": "SorC27 (peptide)", "peptide": "EGKLSSNDTEGGLCKEFLHPSKVDLPR", "modifications": "not checked"}}, "key": {"[1]": {"target": "T1, human TRPV6b expressed in LnCaP cells (transfected with pCAGS-IRES-hTRPV6b) (human), Q9H1D0", "T1 chain": "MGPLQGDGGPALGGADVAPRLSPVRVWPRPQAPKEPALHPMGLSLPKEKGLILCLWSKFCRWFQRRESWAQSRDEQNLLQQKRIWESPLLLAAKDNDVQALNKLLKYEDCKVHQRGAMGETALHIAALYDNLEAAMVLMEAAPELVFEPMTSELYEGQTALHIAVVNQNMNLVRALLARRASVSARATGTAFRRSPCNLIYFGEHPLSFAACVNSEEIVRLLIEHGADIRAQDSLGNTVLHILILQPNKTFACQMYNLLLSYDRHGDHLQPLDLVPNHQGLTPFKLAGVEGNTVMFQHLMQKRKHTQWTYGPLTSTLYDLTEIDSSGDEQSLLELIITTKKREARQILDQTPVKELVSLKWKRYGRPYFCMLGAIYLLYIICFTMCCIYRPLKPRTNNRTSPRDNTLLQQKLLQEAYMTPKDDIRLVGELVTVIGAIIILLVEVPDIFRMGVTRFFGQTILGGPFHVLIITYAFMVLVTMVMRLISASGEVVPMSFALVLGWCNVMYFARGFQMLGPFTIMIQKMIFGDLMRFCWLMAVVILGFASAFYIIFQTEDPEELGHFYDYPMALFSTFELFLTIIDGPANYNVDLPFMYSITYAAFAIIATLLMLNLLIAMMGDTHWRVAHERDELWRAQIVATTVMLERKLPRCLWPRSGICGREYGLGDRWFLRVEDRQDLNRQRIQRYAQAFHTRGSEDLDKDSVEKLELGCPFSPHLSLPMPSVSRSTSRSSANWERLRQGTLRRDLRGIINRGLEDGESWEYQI"}, "[2]": {"target": "T1, human TRPV6b expressed in LnCaP cells …", "experiment": "cell-based or functional assay"}}}
{"binder": "B1", "values": [{"measurement": "Kd", "setting": "[1]", "value": 0.1, "unit": "µM"}, {"measurement": "inhibition constant of calcium current (whole-cell patch clamp)", "setting": "[2]", "value": 100, "unit": "nM"}]}
{"binder": "B2", "values": [{"measurement": "Kd", "setting": "[1]", "value": 0.14, "unit": "µM"}, {"measurement": "inhibition constant of calcium current (whole-cell patch clamp)", "setting": "[2]", "value": 100, "unit": "nM"}]}
